Laboratory results as given in patent US20240400715A1 (VIBRANT PHARMA, published 2024).
Numbering of substitutions follows the chain as printed. Values joined by “and” are separate entries in the source; they are usually repeats but may differ in a detail not shown here. Equal entries are not always repeated.

B1: CEA-Fab-Knob-+Hole (203) (bispecific antibody, human IgG4 S228P, kappa, F234A L235A)
heavy: EVKLLESGGGLVQPKGSLKLSCAASGFTFNTYAMNWVRQAPGKGLEWVARIRSKYNNYATYYADSVKDRFTISRDDSQSILYLQMNNLKTEDTAMYYCVRHGNFGNSYVSWFAYWGQGTLVTVSSASTKGPSVFPLAPCSRSTSESTAALGCLVKDYFPEPVTVSWNSGALTSGVHTFPAVLQSSGLYSLSSVVTVPSSSLGTKTYTCNVDHKPSNTKVDKRVESKYGPPCPPCPAPEAAGGPSVFLFPPKPKDTLMISRTPEVTCVVVDVSQEDPEVQFNWYVDGVEVHNAKTKPREEQFNSTYRVVSVLTVLHQDWLNGKEYKCKVSNKGLPSSIEKTISKAKGQPREPQVYTLPPCQEEMTKNQVSLWCLVKGFYPSDIAVEWESNGQPENNYKTTPPVLDSDGSFFLYSRLTVDKSRWQEGNVFSCSVMHEALHNHYTQKSLSLSL
chain: ESKYGPPCPPCPAPEAAGGPSVFLFPPKPKDTLMISRTPEVTCVVVDVSQEDPEVQFNWYVDGVEVHNAKTKPREEQFNSTYRVVSVLTVLHQDWLNGKEYKCKVSNKGLPSSIEKTISKAKGQPREPQVCTLPPSQEEMTKNQVSLSCAVKGFYPSDIAVEWESNGQPENNYKTTPPVLDSDGSFFLVSRLTVDKSRWQEGNVFSCSVMHEALHNRFTQKSLSLSL
light: EVQLVESGGGFVQAGESLTLSCTSSTLTFTPYRMAWYRQAPGKQRDLVADISSGDGRTTNYADFAKGRFTISRDNIKNTVFLRMTNLKPEDTAVYYCNTFVSFVGIARSWGQGTQVTVSSGGGGSGGGGSQAVVTQESALTTSPGETVTLTCRSSTGAVTTSNYANWVQEKPDHLFTGLIGGTNKRAPGVPARFSGSLIGDKAALTITGAQTEDEAIYFCALWYSNLWVFGGGTKVEIKRTVAAPSVFIFPPSDEQLKSGTASVVCLLNNFYPREAKVQWKVDNALQSGNSQESVTEQDSKDSTYSLSSTLTLSKADYEKHKVYACEVTHQGLSSPVTKSFNRGEC
notes: VHH linked to the VL of the Fab; human IgG4 knob-into-hole Fc
B2: CEA-Knob+Fab-Hole (104) (bispecific antibody, human IgG4 S228P, kappa, F234A L235A)
chain: EVQLVESGGGFVQAGESLTLSCTSSTLTFTPYRMAWYRQAPGKQRDLVADISSGDGRTTNYADFAKGRFTISRDNIKNTVFLRMTNLKPEDTAVYYCNTFVSFVGIARSWGQGTQVTVSSESKYGPPCPPCPAPEAAGGPSVFLFPPKPKDTLMISRTPEVTCVVVDVSQEDPEVQFNWYVDGVEVHNAKTKPREEQFNSTYRVVSVLTVLHQDWLNGKEYKCKVSNKGLPSSIEKTISKAKGQPREPQVYTLPPCQEEMTKNQVSLWCLVKGFYPSDIAVEWESNGQPENNYKTTPPVLDSDGSFFLYSRLTVDKSRWQEGNVFSCSVMHEALHNHYTQKSLSLSL
heavy: B1 heavy with Y354C, C359S, W371S, L373A, Y412V, H440R, Y441F
light: QAVVTQESALTTSPGETVTLTCRSSTGAVTTSNYANWVQEKPDHLFTGLIGGTNKRAPGVPARFSGSLIGDKAALTITGAQTEDEAIYFCALWYSNLWVFGGGTKVEIKRTVAAPSVFIFPPSDEQLKSGTASVVCLLNNFYPREAKVQWKVDNALQSGNSQESVTEQDSKDSTYSLSSTLTLSKADYEKHKVYACEVTHQGLSSPVTKSFNRGEC
notes: Anti-CD3 TA1 Fab + anti-CEA VHH C17 on human IgG4 knob-into-hole Fc
B3: Knob+CEA-Fab-Hole (204) (bispecific antibody, human IgG4 S228P, kappa, F234A L235A)
chain: B1 chain with C131Y, S136C, S148W, A150L, V189Y, R217H, F218Y
heavy: B1 heavy with Y354C, C359S, W371S, L373A, Y412V, H440R, Y441F
light: B1 light
notes: as for B1
B4: Knob-CEA+Fab-Hole (105) (bispecific antibody, human IgG4 S228P, kappa, F234A L235A)
chain: ESKYGPPCPPCPAPEAAGGPSVFLFPPKPKDTLMISRTPEVTCVVVDVSQEDPEVQFNWYVDGVEVHNAKTKPREEQFNSTYRVVSVLTVLHQDWLNGKEYKCKVSNKGLPSSIEKTISKAKGQPREPQVYTLPPCQEEMTKNQVSLWCLVKGFYPSDIAVEWESNGQPENNYKTTPPVLDSDGSFFLYSRLTVDKSRWQEGNVFSCSVMHEALHNHYTQKSLSLSLGGGGSGGGGSEVQLVESGGGFVQAGESLTLSCTSSTLTFTPYRMAWYRQAPGKQRDLVADISSGDGRTTNYADFAKGRFTISRDNIKNTVFLRMTNLKPEDTAVYYCNTFVSFVGIARSWGQGTQVTVSS
heavy: B1 heavy with Y354C, C359S, W371S, L373A, Y412V, H440R, Y441F
light: B2 light
notes: as for B2
B5: CEA-Fab-Knob-+Hole (205) (bispecific antibody, human IgG4 S228P, kappa, F234A L235A)
heavy: EVQLVESGGGFVQAGESLTLSCTSSTLTFTPYRMAWYRQAPGKQRDLVADISSGDGRTTNYADFAKGRFTISRDNIKNTVFLRMTNLKPEDTAVYYCNTFVSFVGIARSWGQGTQVTVSSGGGGSGGGGSEVKLLESGGGLVQPKGSLKLSCAASGFTFNTYAMNWVRQAPGKGLEWVARIRSKYNNYATYYADSVKDRFTISRDDSQSILYLQMNNLKTEDTAMYYCVRHGNFGNSYVSWFAYWGQGTLVTVSSASTKGPSVFPLAPCSRSTSESTAALGCLVKDYFPEPVTVSWNSGALTSGVHTFPAVLQSSGLYSLSSVVTVPSSSLGTKTYTCNVDHKPSNTKVDKRVESKYGPPCPPCPAPEAAGGPSVFLFPPKPKDTLMISRTPEVTCVVVDVSQEDPEVQFNWYVDGVEVHNAKTKPREEQFNSTYRVVSVLTVLHQDWLNGKEYKCKVSNKGLPSSIEKTISKAKGQPREPQVYTLPPCQEEMTKNQVSLWCLVKGFYPSDIAVEWESNGQPENNYKTTPPVLDSDGSFFLYSRLTVDKSRWQEGNVFSCSVMHEALHNHYTQKSLSLSL
chain: B1 chain
light: B2 light
notes: VHH linked to the VH of the Fab; human IgG4 knob-into-hole Fc

Target: T1, human CD3ε/δ (ACRO systems, CDD-H52W1) (human, UniProt P07766 23-126; P04234 22-105)
T1 construct: Bought protein; also called human CD3ϵ/CD3δ; human CD3 epsilon/delta antigen
Assay: BLI, antibody captured, antigen in solution;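 further: bispecific antibodies captured on AHIC biosensors to a 1.5 nm loading signal, in PBST with 0.02% detergent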
Description: The bispecific antibodies were diluted to 5 ag/ml, and 1.5 nm protein was coupled to the surface of the AHIC sensor chip through 0.02% PBST.

Q: With B1 as the binder, how does the Kd read?
A: 2.51 nM

Q: And the koff?
A: 0.000621 s⁻¹

Q: What about the kon of the same binder?
A: 248000 M⁻¹ s⁻¹

Q: How did the Kd turn out when B2 was run?
A: 0.839 nM

Q: And the koff?
A: 0.0003 s⁻¹

Q: And the kon?
A: 357000 M⁻¹ s⁻¹

Q: Which results are given for B3?
A: Kd: 2.91 nM; koff: 0.000571 s⁻¹; kon: 197000 M⁻¹ s⁻¹

Q: How did the Kd turn out when B4 was run?
A: 0.696 nM

Q: What about the koff of the same binder?
A: 0.000256 s⁻¹

Q: What about the kon of the same binder?
A: 367000 M⁻¹ s⁻¹

Q: Which Kd does the source give for B5 here?
A: 2.38 nM

Q: What about the koff of the same binder?
A: 0.000666 s⁻¹

Q: What about the kon of the same binder?
A: 279000 M⁻¹ s⁻¹

Target: T2, human CD3 on Jurkat cells (human, UniProt P07766 23-207; P04234 22-171; P09693 23-182)
T2 construct: whole, on cells; CD3 complex as on Jurkat (Clone E6-1) cells; also called CD3 expressing cells (Jurkat)
Assay: FACS, Jurkat cells;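 further: flow cytometric binding of bispecific antibodies to Jurkat T cells, threefold serial dilutions incubated half an hour in the cold, EC50 taken from the fitted binding curve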

Q: With B1 as the binder, how does the EC50 read?
A: 0.29 µg/mL and 2.23 nM

Q: How did the EC50 turn out when B2 was run?
A: 3.35 µg/mL and 25.8 nM

Q: Which EC50 does the source give for B3 here?
A: 1.36 µg/mL and 10.4 nM

Q: For B4, which EC50 is on record?
A: 0.85 µg/mL and 6.54 nM

Q: Which EC50 does the source give for B5 here?
A: 0.195 µg/mL and 1.5 nM
